T1: human PAR-1 (human, UniProt P25116 22-425)
T1 construct: also called huPAR-1
T1 sequence: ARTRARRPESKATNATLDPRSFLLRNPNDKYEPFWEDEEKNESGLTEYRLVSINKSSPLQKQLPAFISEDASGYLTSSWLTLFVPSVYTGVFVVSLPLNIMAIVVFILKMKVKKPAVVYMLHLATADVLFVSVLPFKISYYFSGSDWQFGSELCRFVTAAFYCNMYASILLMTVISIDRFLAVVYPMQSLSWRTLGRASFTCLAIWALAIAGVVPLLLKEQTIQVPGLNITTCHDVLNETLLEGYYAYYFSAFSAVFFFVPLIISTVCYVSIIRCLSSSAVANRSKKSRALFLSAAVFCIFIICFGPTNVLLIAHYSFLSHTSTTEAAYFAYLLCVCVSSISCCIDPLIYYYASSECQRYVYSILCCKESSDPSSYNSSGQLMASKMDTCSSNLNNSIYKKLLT

T2: human PAR-2 (human, UniProt P55085 26-397)
T2 sequence: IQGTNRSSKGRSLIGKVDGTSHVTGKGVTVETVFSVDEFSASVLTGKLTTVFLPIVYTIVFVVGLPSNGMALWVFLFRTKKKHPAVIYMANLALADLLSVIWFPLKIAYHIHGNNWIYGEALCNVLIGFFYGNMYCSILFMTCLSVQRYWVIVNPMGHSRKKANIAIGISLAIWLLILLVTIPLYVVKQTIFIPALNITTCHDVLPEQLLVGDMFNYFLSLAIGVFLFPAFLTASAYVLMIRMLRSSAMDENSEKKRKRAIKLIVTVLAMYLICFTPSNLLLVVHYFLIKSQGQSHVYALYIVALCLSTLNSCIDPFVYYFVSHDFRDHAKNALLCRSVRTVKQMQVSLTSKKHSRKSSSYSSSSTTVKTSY


Legend:
human PAR-1 = biological target: T1, human PAR-1; assay: flow cytometry, transfected Expi293F cells
Description: Paired heavy and light chains encoded by these sequence pairs were expressed as a full length human IgG4 isotype antibodies and assessed for PAR-2 binding and selectivity by flow cytometry. […] Cells were used for flow cytometric analysis 36-48 hours post-transfection. Use of Nt-PAR-2 as a target allowed antibodies which bound the N-terminal residues of PAR-2 (which comprise the protease-cleavage sites on PAR-2) to be distinguished from antibodies which bound other extracellular sites on PAR-2, such as the PAR-2-activating ligand-binding site(s). Expi293F cells, transiently expressing one of each of the different target proteins were labelled with different intensities of a single fluorphor Encoder dye (Intellicyt) for 10 mins at either 1 in 250 dilution for high intensity and/or 1 in 1500 dilution for moderate intensity, enabling simultaneous analysis of multiple cell populations. After washing the cells were then mixed in an equal ratio with the unlabeled cell type and analyzed for antibody binding.
The cells were plated in 96 well plates at 2×10⁵ cells/well. Following a wash step using Phosphate buffered saline (PBS), the primary antibody (anti-PAR-2 antibody) was added at a concentration of 10 μg/mL in 50 μL of FACS buffer (0.5% w/v BSA in PBS) to each well and incubated for 10-15 mins. Following a wash step, secondary antibody (anti-human Fc-FITC) was added to the wells at 1:200 dilution in 50 μL for 10-15 mins. Following a washing step, the cells were re-suspended in fluorescence-activated cell sorting (FACS) buffer. The flow cytometry analysis was performed on an Intellicyt iQue screener. Gates were drawn around the different intensities of encoder dye-positive cells and these populations were analyzed separately from each other and the unlabeled cells for binding by the primary antibody.

human PAR-2 = biological target: T2, human PAR-2; assay: cell-based or functional assay

Binder	binding result (human PAR-1)	IC50, PAR-2 β-arrestin cell assay (human PAR-2) [nM]
Ab261 (antibody, human IgG4, V domains shown, also called Anti-PAR-2 antibody # 261) VH: EVQLVESGGGLVQPGRSLKLSCVASGFTFNNYWMTWIRQAPGKGLEWVASITNTGGNTYYPDSVKGRFTISRDNAKSTLYLQMNSLRSEDTATYYCTRDRIIRGADWFAYWGQGTLVTVSS VL: DIQMTQSPHSLSASLGETVSIECLASEGISNYLAWFQQKPGKSPQLLIYYASSLQDGVPSRFSGSGSGTQYSLKISNMQPEDEGVYYCQQGYKYPWTFGGGTKLELK	no binding (tested: 10 µg/mL)	19.9
Ab228 (antibody, human IgG4, V domains shown) VH: EVQLVESGGGLVQPGRSLKLSCVVSGFTFNNYWMTWIRQAPGKGLEWVASITNSGGNTYYPDSVKGRFTISRDNAKSTLYLQMNSLRSEDTATYYCTRDRIIRGSTWFAYWGQGTLVTVSS VL: DIQMTQSPHSLSASLGETVSIECLASEGISNYLAWYQQKPGKSPQLLIYYASSLQDGVPSRFSGSGSGTQYSLKISNMQPEDEGVYYCHQGYKYPWTFGGGTKLELK	no binding (tested: 10 µg/mL)	33.3
Ab435 (antibody, human IgG4, V domains shown) VH: EVQLVESGGGLVQPGRSLKLSCVGSGFTFNNYWMTWIRQAPGWGLEWVASITNTGGRTYYPDSVKGRFTISRDNAKSTLYLQMNSLRSEDTATYYCTRDRVYYGSNWFVYWGQGTLVTVSS VL: DIQMTQSPHSLSASLGETVSIECLASEGISNYLAWYQQKPGKSPQLLIYYASSLQDGVPSRFSGSGSGTQYSLKISNMQPEDEGIYYCQQHYKYPWTFGGGTKLELK	no binding (tested: 10 µg/mL)	53.8
Ab380 (antibody, human IgG4, V domains shown, also called Anti-PAR-2 antibody # 380) VH: EVQLVESGGGLVQPGRSLKLSCVATGFTFNNYWMTWIRQAPGKGLEWVASITNSGGNTYYPDSVKGRFTISRDDAKSTLYLQMNSLRSEDTATYYCTRVRVYYGSNWFVYWGQGTLVTVSS VL: DIQMTQSPHSLSASLGETVSIECLASEGISNYLAWFQQKPGKSPQLLIYYASSLQDGVPSRFSGSGSGTQYSLKISNMQPEDEGVYYCQQGYKYPWTFGGGTKLELK	no binding (tested: 10 µg/mL)	57.1
Ab227 (antibody, human IgG4, V domains shown, also called Anti-PAR-2 antibody # 227) VH: EVQLVESGGGLVQPGRSLKLSCVASGFTFNNYWMTWIRQAPGKGLEWVASITNSGGRTYYPDSVKGRFTVSRDSAKSTLYLQMNSLRSEDTATYYCTRDRIIRGSTWFTYWGQGTLVTVSS VL: DIQMTQSPHSLSASLGETVSIECLASEGISNYLAWFQQKPGKSPQLLIYYASSLQDGVPSRFSGSGSGTQYSLKISNMQPEDEGVYYCQQGYKYPWTFGGGTELELK	no binding (tested: 10 µg/mL)	10.2
Ab201 (antibody, human IgG4, V domains shown) VH: QVQLQQSGPELVKPGASVKISCKASGFSFTSFYIHWVNQRPGQGLEWIGWIYPGSGNTLYNEKFKGKATLTADTSSSTAYIHLSSLTSEDSAVYYCTRGPLFYGSSHWYFDVWGMGTTVTVSS VL: EVQITQSPSYLAASPGETITINCRASKSISKYLAWYQEKPGKTNKLLIYSGSTLQSGIPSRFSGSGSGTDFTLTISSLEPEDFAMYYCQQHNKYPLTFGAGTRLELK	no binding (tested: 10 µg/mL)	10.7
Ab335 (antibody, human IgG4, V domains shown, also called Anti-PAR-2 antibody # 335) VH: QVQLKESGPGLVQPSQTLSLSCTVSGFSLSTYGVIWVRQPPGKGLEWMGVIWGNGNTNYNSALKSRLSISRDTSKSQVFLKMNNLQSEDTAMYFCGRWRGYKDYPFDYWGQGVKVTVSS VL: DIQMTQSPSFLSASVGDRVTINCKASRNIYKYLDWYQQKLGEAPKLLIYNTNNLHTGIPSRFSGSGSGTDFTLTISSLQPEDVATYFCLQHNSGWTFGGGTKLELK	no binding (tested: 10 µg/mL)	2.5
Ab225 (antibody, human IgG4, V domains shown, also called Anti-PAR-2 antibody # 225) VH: QVQLKESGPGLVQPSQTLSLTCTVSGFSLTSYHVSWVRQSPGKGLEWMGIIWTGGSTAYNSLLKSRLSISRDTSKSQVFLKMNSLQTEDTATYYCARRGAYPFYFDYWGQGVMVTVSS VL: EIVLTQSPTTMAASPGEKVTITCRASSSVRSMYWYQQKSGASPKPWIYETSKLTSGVPDRFSGSGSGTSYSFTISSMGTEDAGTYYCHQWTTTPYTFGAGTKLELK	no binding (tested: 10 µg/mL)	3.4
Ab245 (antibody, human IgG4, V domains shown, also called Anti-PAR-2 antibody # 245) VH: QVQLKESGPGLVQPSQTLFLTCTVSGFSLTSYHVSWVRQPPGKGLEWMGIIWTGGSTAYNSLLKPRLTISRDTSKSQVFLKMNSLRTEDTATYYCARRGLYPFYFDYWGQGVMVTVSS VL: EVVLTQSPTTMAASPGEKVTITCRATSSVSHMYWYQQKSGASPKPWIYETSKLASGVPDRFRGSGSGTSYSFTISSMETEDVATYYCHQWSSFPYTFGPGTKLELK	no binding (tested: 10 µg/mL)	3.8
Ab192 (antibody, human IgG4, V domains shown, also called Anti-PAR-2 antibody # 192) VH: QVQLQQPGTELVKPGASVKLSCKASGYTFTSYWMHWIKQRPGQGLEWIGNINPSSGGTNYNEKFKTKATLTVDKSSSTAYMQLSSLTSEDSAVYYCAGEAYSNYVAWFAYWGQGTLVTVSS VL: ENVLTQSPAIMSASLGEKVTMSCRASSSVNYMYWYQQKSDASPKLWIYYTSNLAPGVPARFSGSGSGTSYSLTISSMEGEDAATYYCQQFTTSPYTFGGGTKLEIK	no binding (tested: 10 µg/mL)	100

Results, then the binder that gave them:

binding result (human PAR-1)	IC50, PAR-2 β-arrestin cell assay (human PAR-2) [nM]	Binder
no binding (tested: 10 µg/mL)	4.6	Ab248 (antibody, human IgG4, V domains shown, also called Anti-PAR-2 antibody # 248) VH: QVQLKESGPGLVQPSQTLSLTCTVSGFSLTNYHVSWVRQPPGKGLEWMGIIWTGGSTAYNSLLKSRLSISRDTSKSQVFLKMNSLQTEDTATYYCARRGLYPYYFDYWGQGVMVTVSS VL: EIVLTQSPTTLAASPGEKVTITCRASSRVSNMYWYQQKSGASPKAWIYETSKLASGVPDRFSGSGSGTSYSFTISSMETEDAATYYCHQWTSTPYTFGAGTKLELK
no binding (tested: 10 µg/mL)	23.1	Ab5 (antibody, human IgG4, V domains shown, also called Anti-PAR-2 antibody # 5) VH: QVQLQQPGSELVKPGASVKLSCKASGYTFTNYWMHWVKQRPGQGLEWIGMIHPNSDFSNYNEKFKKKATLTVDKSSSTAYMQLSSLTSEDSAVYFCAKGPNYYGSRYWYFDVWGTGTTVTVSS VL: DIVLTQSPTSLAVSLGQRATISCRASESVDSYGNSFLHWYQQKAGQPPKLLIYRTSNLESGIPARFSGSGSRTDFTLTINPVEADDVATYFCQQSNEDPYTFGGGTKLELK
no binding (tested: 10 µg/mL)	4.8	Ab234 (antibody, human IgG4, V domains shown, also called Anti-PAR-2 antibody # 234) VH: EVQLVETGGGLVQPGRSLKLSCVASGFTFNNYWLYWIRQAPGKGLEWVSSINNDGGGTYYPDSVKGRFTVSRDNAENTVYLQMNSLRSEDTATYYCARDRAFIRGRFAYWGQGTLVTVSS VL: EIVLTQSPTTMAASPGEKVTLTCRASSSVIYMHWYQQRSGASPKLWIYETSKLASGVPNRFGGSGSGTSYSLTINSMETEDAATYYCQQGSYYPWTFGGGTKLELK
no binding (tested: 10 µg/mL)	9	Ab303 (antibody, human IgG4, V domains shown, also called Anti-PAR-2 antibody # 303) VH: QVTLKESGPGILQPSHTLSLTCSFSGFSLSTYGMGVSWIRQPSGKGLEWLASIWWNGNTYNNPSLKSRLTVSKDTSNNQAFLKVTSVDTADTATYYCAHTPNLGNWFAYWGQGTLVTVSS VL: DIQMTQSPSFLSASVGERVTLSCKTSQKINRYLDWYQQKLGEAPKLLIYNTNNLHTGIPSRFSGSGSGTDYTLTISSLQPEDVATYFCLQHSSWPTFGAGTKLELK
no binding (tested: 10 µg/mL)	65.5	Ab209 (antibody, human IgG4, V domains shown, also called Anti-PAR-2 antibody # 209) VH: QVQLQQPGTELVKPGASVKLSCKASGYTFTSYWMHWIKQRPGQGLEWIGNINPSTGSTNFNVKFKTKATLTVDKSSSTTYMQLNSLTSEDSAVYYCAGEAYSNYVAWFAYWGQGTLVTVSS VL: ENVLTQSPAIMSASLGEKVTMSCRASSSVNYMYWYRQKSDASPKLWIYYTSNLAPGVPTRFSGSGSGTSYSLTISSMEGEDAATYYCQQFTTSPYTFGGGTKLEIK

Reference: US20220056125A1 (CEPHALON, published 2022)
